We go through three molecules from patent US20230002478A1.

Common to all, as to details: remark: other sources report otherwise
Assay [1] concerns the target biotinylated SARS-CoV-2 spike RBD (Ancestral) (SARS-CoV-2), P0DTC2. Put plainly: AlphaLISA, inhibition of ACE2-muFc / biotinylated spike complex. (Alpha assays give light when donor and acceptor beads are brought close together.)
The target of assay [2] is biotinylated SARS-CoV-2 spike trimer, Delta (SARS-CoV-2), P0DTC2. The assay is described as above.
Assay [3] deals with biotinylated D614G SARS-CoV-2 spike trimer (SARS-CoV-2), P0DTC2. Described as above.
Assay [4] addresses S1 RBD fused to mouse Fc, Beta variant (SARS-CoV-2), P0DTC2. Put plainly: flow cytometry: inhibition of S1 RBD-mFc binding to Vero E6 cells (ACE2). For orientation: In flow cytometry, cells or beads pass a laser one at a time.
Assay [5] concerns the target S1 RBD-mFc (Acro SPD-05259) (SARS-CoV-2), P0DTC2. The description is as above.
Assay [6] deals with SARS-CoV-2 S RBD (N439K) (SARS-CoV-2), P0DTC2. Nature of the assay: SPR.
Assay [7] concerns the target SARS-CoV-2 S RBD (K417N) (SARS-CoV-2), P0DTC2. Nature of the assay: SPR. (Surface plasmon resonance follows binding to a sensor surface in real time, without labels.)
Assay [8] concerns the target SARS-CoV-2 S1-Fc (South Africa 178-08) (SARS-CoV-2), P0DTC2. Nature of the assay: SPR.
Assay [9] concerns the target SARS-CoV-2 S RBD (E484K) (SARS-CoV-2), P0DTC2. Nature of the assay: SPR.
The target of assay [10] is SARS-CoV-2 S RBD (Y453F) (SARS-CoV-2), P0DTC2. Nature of the assay: SPR.
The target in assay [11] is SARS-CoV-2 S RBD (N501Y) (SARS-CoV-2), P0DTC2. Nature of the assay: SPR.
Assay [12] deals with SARS-CoV-2 S Trimer (SARS-CoV-2), P0DTC2. Put plainly: SPR.
Assay [13] addresses SARS-CoV-2 S1 (D614G) (SARS-CoV-2), P0DTC2. Nature of the assay: SPR.

B1: antibody 339-031 (Fc fusion)
chain: EVQLVESGGGLVQPGGSLRLSCAASGSTFSINAMGWFRQAPGKEREFVAGITSSGGYTNYADSVKGRFTISADNSKNTAYLQMNSLKPEDTAVYYCAADGVPEYSDYASGPVWGQGTLVTVSS
B1: the 50% inhibitory concentration (IC50) in assay [1] is 5.6 nM; in assay [2] it was 3 nM; in assay [3], 2.1 nM; in assay [4], > 100 nM; in assay [5], 1.25 nM.

B2: antibody 202-03 (Fc fusion)
chain: EVQLVESGGGLVQPGGSLRLSCAASGFTFSPSWMGWFRQAPGKEREFVATINEYGGRNYADSVKGRFTISADNSKNTAYLQMNSLKPEDTAVYYCARVDRDFDYWGQGTLVTVSS
As to B2, the concentration for half-maximal inhibition (IC50) in assay [1] is 8.3 nM; in assay [3], 4 nM; in assay [4], 0.587 nM.

B3: 6-3 (Fc fusion)
chain: B2 chain
For B3, the Kd worked out at 9.5 nM in assay [6]; 5.9 nM in assay [7]; 6.1 nM in [8]; 4.6 nM in assay [9]; 5.7 nM in assay [10]; 0.71 nM in [11]. The dissociation constant (Kd) in [12] amounted to 2.4 nM; in assay [13], 19 nM.

A word on the IC50: it is the concentration that gives 50% inhibition. Read a low IC50 as higher potency. What is called Kd is the concentration at which binding is half-saturated.
